Patent US9192648

Molecular target: complement C5
Experiment: assay for the IC50 not described; told with the direct binding to C5 (FIG. 4C)

EV576 protein (from UniProt Q5YD59 19-168)
IC50: 20 µg/mL
